Our source for the fluorophore binding sites per vesicle (fluorophore binding sites per vesicle) and labeled cargo proteins per capsid (labeled cargo proteins per capsid) values is publication PMC8596989.

The target in assay [1] is Encapsulin from Mycobacterium smegmatis with Streptavidin-tag (^StrepEncSM) (Mycobacterium smegmatis) (UniProt A0R4H0). In words: FRET or BRET. A general note: Bioluminescence resonance energy transfer reports proximity on the nanometre scale.
For assay [2] the target is unchanged. In words: in-gel fluorescence against a standard curve.

“HaloTag construct carrying an encapsulin localization sequence (HaloTag-ELS)” had a fluorophore binding sites per vesicle (fluorophore binding sites per vesicle) in assay [1] of over 3. In addition, the labeled cargo proteins per capsid (labeled cargo proteins per capsid) in assay [2] is 6.6.
